Measured values taken from patent US20150203579A1 (Regeneron, published 2015).

T1: recombinant cynomolgus monkey PD-1 expressed with a C-terminal myc-myc-hexahistidine tag (cynomolgus monkey (Macaca fascicularis))
T1 construct: monomeric; also called MfPD-1-MMH
T1 chain: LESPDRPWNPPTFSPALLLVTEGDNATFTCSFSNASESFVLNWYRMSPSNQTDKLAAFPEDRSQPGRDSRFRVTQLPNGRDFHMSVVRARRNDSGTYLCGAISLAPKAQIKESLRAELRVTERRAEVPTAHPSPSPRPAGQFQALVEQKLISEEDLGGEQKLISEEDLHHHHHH


Key:
[1] = molecular target: T2, recombinant human PD-1 expressed with a C-terminal myc-myc-hexahistidine tag (human); test: SPR (Biacore), mAb captured, hPD-1-MMH injected, 25 C;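 also: rate constants obtained by fitting sensorgrams to a 1:1 binding model, KD derived as kd/ka and half-life as ln2/(60·kd) in minutes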
T2 construct: also called hPD-1-MMH; human PD-1-MMH

[2] = molecular target: T3, human PD-1 dimer (human PD-1-mFc or human PD-1-hFc) (human, UniProt Q15116 25-170); test: SPR, mAb captured, 37C;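 also: Real-time Biacore biosensor, PD-1 dimer flowed over anti-PD-1 antibody surface, rate constants fitted to a 1:1 model, KD derived as kd/ka and t½ as ln2/(60·kd)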
T3 construct: also called hPD-1-mFc; hPD1-hFc

[3] = molecular target: T1, recombinant cynomolgus monkey PD-1 …; test: SPR, mAb captured, 37C;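 also: rate constants from fitting sensorgrams to a 1:1 binding model, with Kd computed as koff/kon and half-life as ln2/(60·koff), PD-1 flowing over anti-PD-1 antibody surfaces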
[4] = molecular target: T4, recombinant human PD-1 expressed with a C-terminal myc-myc-hexahistidine tag (human); test: SPR, mAb captured, 37C;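 also: rate constants from fitting sensorgrams to a 1:1 binding model, KD derived as kd divided by ka and half-life as ln2/(60·kd)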
T4 construct: monomeric; also called hPD-1-MMH; human PD-1-MMH

[5] = molecular target: T1, recombinant cynomolgus monkey PD-1 …; test: SPR, mAb captured, 25C;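 as to result: rates from fitting Biacore data for PD-1 binding to anti-PD-1 antibodies with a 1:1 model, KD computed as koff/kon and t½ as ln2/(60·koff)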
[6] = molecular target: T3, human PD-1 dimer (human PD-1-mFc or …); test: SPR, mAb captured, 25C;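 as to result: rates from fitting Biacore data for PD-1 binding to anti-PD-1 antibodies with a 1:1 model, KD computed as koff/kon and t½ as ln2/(60·koff)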

T3 sequence (Q15116 25-170 C93S): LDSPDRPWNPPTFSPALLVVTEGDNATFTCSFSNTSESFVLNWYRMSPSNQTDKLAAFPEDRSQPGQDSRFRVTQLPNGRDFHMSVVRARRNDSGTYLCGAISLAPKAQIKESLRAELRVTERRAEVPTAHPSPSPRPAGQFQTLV

Binder | Kd [1] | koff [1] | kon [1] | t½ [1] | further results
H2aM7780N (antibody, mouse IgG2a, V domains shown, also called H2M7780N) VH: QVQLVESGGGVVQSGRSLRLSCAASGFTFSSYGMHWVRQAPGKGLEWVAVIWYDGSNIYYSDSVKGRFTISRANSKNTLYLQMNSLRAEDTAVYYCARPGHWNYFFEYWGQGTLVTVSS VL: DIQMTQSPSSLSASVGDRVTITCRASQSINNYLNWYQQKPGKAPKLLIYTASSLQSGVPSRFSGSGSGTDFTLTISSLQPEDFATYYCQQSYSTPPLTFGQGTQLEIK | 38.5 nM | 0.000359 s⁻¹ | 9320 M⁻¹ s⁻¹ | 32 min | 
H1M7789N (antibody, mouse IgG1, V domains shown, Human variable domains, mouse IgG1 Fc (H1M prefix)) VH: EVQLLESGGGLVQPGGSLRLSCSASGFTFSSYTMNWVRQAPGKGLEWVSGISDTGGNTYYTDSVKGRFTVSRDNSKNTLSLQMNSLRAEDTAVYYCAKDQGGSYPYYFHYWGQGSLVTVSS VL: DIQMTQSPSSLSASVGDRVTITCRASQSISSYLIWYQQKPGTAPKFLIYAASSLQSGVPSRFSGCGSGTDFTLTISSLQPEDFATYYCQQSYSTPPITFGQGTRLEIK | 2.1 nM | 5.31e-05 s⁻¹ | 25300 M⁻¹ s⁻¹ | 218 min | 
H4H7795N2 (antibody, human IgG4 S228P, kappa, V domains shown) VH: EVQVVESGGGLVEPGRSLRLSCKASGFTFDDYAMHWVRQTPGKALEWVSGISWSGNNIGYADSVKGRFTISKDDAKNSLYLQMNSLRPEDTALYYCTKDISITGTLDAFDVWGQGTMVTVSS VL: DIQMTQSPISVSASVGDRVTITCRASQGISNWLAWYQQKPGIAPKLLIYSASSLQSGVPSRFRGSGSGTDFTLTIGSLQPEDFATYYCQQAHSFPLTFGGGTKVEIKR | 23.3 nM | 0.00148 s⁻¹ | 63500 M⁻¹ s⁻¹ | 8 min | 
H2aM7791N (antibody, mouse IgG2a, V domains shown, Human variable domains, mouse IgG2a Fc; also called H2M7791N) VH: QMQLQQWGAGLLKPSETLSLTCVVYGGSLNGYYWSWIRQSPGKGLEWIGEIDHSGSTNYNPSLKNRVTMSVDTSKIQFSLKLTSVTVADTAVYYCAREGLLPFDYWGQGTLVTVSS VL: EIVLTQSPGTLSLSPGERVTLSCRASQSVYSNYLAWYQQNPGQAPRLLIYAASNRATGIPDRFSGSGSGTDFTLTISRLEPEDFAVYYCHQYATSPWTFGQGTKVEIK | 23.4 nM | 0.000706 s⁻¹ | 30100 M⁻¹ s⁻¹ | 16 min | 
H2aM7780N (antibody, mouse IgG2a, V domains shown, Human variable regions, mouse IgG2a Fc (H2aM prefix); also called H2M7780N) VH: QVQLVESGGGVVQSGRSLRLSCAASGFTFSSYGMHWVRQAPGKGLEWVAVIWYDGSNIYYSDSVKGRFTISRANSKNTLYLQMNSLRAEDTAVYYCARPGHWNYFFEYWGQGTLVTVSS VL: DIQMTQSPSSLSASVGDRVTITCRASQSINNYLNWYQQKPGKAPKLLIYTASSLQSGVPSRFSGSGSGTDFTLTISSLQPEDFATYYCQQSYSTPPLTFGQGTQLEIK |  |  |  |  | Kd [2]: 0.23 nM; koff [2]: 2.29e-05 s⁻¹; kon [2]: 99400 M⁻¹ s⁻¹; t½ [2]: 505 min; Kd [3]: 60.5 nM; koff [3]: 0.00138 s⁻¹; kon [3]: 22900 M⁻¹ s⁻¹; t½ [3]: 8.3 min; Kd [4]: 55.8 nM; koff [4]: 0.00152 s⁻¹; kon [4]: 27200 M⁻¹ s⁻¹; t½ [4]: 7.6 min; Kd [5]: 31.5 nM; koff [5]: 0.000315 s⁻¹; kon [5]: 10000 M⁻¹ s⁻¹; t½ [5]: 37 min; Kd [6]: 0.236 nM; koff [6]: 9.94e-06 s⁻¹; kon [6]: 42100 M⁻¹ s⁻¹; t½ [6]: 1160 min
H2aM7794N (antibody, V domains shown, Human variable domains, mouse IgG2a Fc; also called H2M7794N) VH: QLQLQESGPDLVKPSDTLSLTCTVSDDSISSTTYYWAWIRQPPGKGLEWIGSMSYNGNNYYNPSLKSRVAISAGTSQKQFSLKLTSVTAADTAVYHCARHLGYNGNWYPFDFWGQGILVTVSS VL: not shown | 38 nM | 0.00212 s⁻¹ | 55000 M⁻¹ s⁻¹ | 5.4 min | 
H2aM7796N (antibody, mouse IgG2a, V domains shown, Human variable regions, mouse IgG2a Fc; also called H2M7796N) VH: QVQLVESGGGVVQPGRSLRLSCAASGFTFSSYGMHWVRQAPGKGLEWVAIIWSDGDSEYNLDSVKGRFTISRDNSKNTLYLQMNSLRVEDSAVYYCARDRDLEDIWGQGTMVTVSS VL: DIQMTQSPSSLSASVGDRVTITCRASQGIRNDLGWYQQKPGKAPKRLIYAASNLQSGVPSRFSGSGSGTEFTLTISSLQPEDFATYYCLQHNSYPLTFGGGTKVEIK |  |  |  |  | Kd [2]: 19.6 nM; koff [2]: 0.000434 s⁻¹; kon [2]: 22100 M⁻¹ s⁻¹; t½ [2]: 27 min; Kd [4]: 1510 nM; koff [4]: 0.0165 s⁻¹; kon [4]: 10900 M⁻¹ s⁻¹; t½ [4]: 0.7 min; binding result [5]: no binding (tested: up to 200 nM); Kd [6]: 3.32 nM; koff [6]: 8.67e-05 s⁻¹; kon [6]: 26100 M⁻¹ s⁻¹; t½ [6]: 133 min
H2aM7795N (antibody, mouse IgG2a, V domains shown, Human variable domains, mouse IgG2a Fc; also called H2M7795N) VH: EVQVVESGGGLVEPGRSLRLSCKASGFTFDDYAMHWVRQTPGKALEWVSGINWSGNNIGYADSVKGRFTISKDDAKNSLYLQMNSLRPEDTALYYCTKDISITGTLDAFDVWGQGTMVTVSS VL: DIQMTQSPISVSASVGDRVTITCRASQGISNWLAWYQQKPGIAPKLLIYSASSLQSGVPSRFRGSGSGTDFTLTIGSLQPEDFATYYCQQAHSFPLTFGGGTKVEIK | 23.5 nM | 0.00115 s⁻¹ | 49100 M⁻¹ s⁻¹ | 10 min | 
H4xH8992P (antibody, V domains shown, Human IgG4 Fc with 2 or more amino acid changes (H4xH)) VH: EVQLVESGGGLVQPGRSLRLSCVASGFALHDYAMHWVRQVPGKGLEWVSSISWNSGVIGYADSLKGRFTISRDNAKNSLYLQMNSLRAEDTALYYCAKGSGSYYVSWFDPWGQGTLVTVSS VL: not shown |  |  |  |  | Kd [2]: 2.91 nM; t½ [2]: 11 min; Kd [5]: 200 nM; t½ [5]: 0.3 min; Kd [6]: 0.68 nM; t½ [6]: 72 min
H1M7800N (antibody, mouse IgG1, V domains shown, Human variable domains, mouse IgG1 Fc) VH: EVQLVESGGGLVQPGGSLRLSCAASGFTVSNNYMSWVRQAPGKGLEWVSVIYSGGFTYYTDSVKGRFTISRHNSKNTLYLQMNSLRAEDTAVYYCARYYYDTSDYWTFFDYWGQGTLVTVSS VL: EIVMTQSPATLSVSPGERATLSCRASQSVSSNLAWYQQKPGQAPRLLIYGASTRATGIPARFSGSGSGTEFTLTISSLQSGDFAVYYCQQYNNWPLTFGGGTKVEIN | 161 nM | 0.00947 s⁻¹ | 58800 M⁻¹ s⁻¹ | 1.2 min | 
H4H9019P (antibody, human IgG4, V domains shown, Fully human, human IgG4 Fc (H4H prefix)) VH: EVQLVESGGGVVRPGGSLRLSCAASGFTFDDYGMSWVRQVPGKGLEWVSGISWNDGKTVYAESVKGRFIISRDNAKNSLYLEMNSLRAEDTALYYCARDWQYLIERYFDYWGQGTLVTVSS VL: not shown | 39.4 nM |  |  |  | 
H4xH9034P (antibody, V domains shown, Human IgG4 Fc with 2 or more amino acid changes as in US20100331527 (H4xH prefix); also called H4xH9034P2) VH: EVQLVESGGGVVRPGGSLRLSCTASGFTFDDYGMSWVRQAPGKGLEWISGIGWTGGRSSYADSVRGRFTISRDNAKNSLYLQMNSLGAEDTALYYCARDRQWLVQWYFDYWGQGTLVTVSS VL: not shown | 14.5 nM | 0.00149 s⁻¹ | 102000 M⁻¹ s⁻¹ | 7.8 min | 
H2aM7788N (antibody, mouse IgG2a, V domains shown, Human variable domains, mouse IgG2a Fc; also called H2M7788N) VH: EVQLVESGGGLVQPGGSLRLSCGASGFTFRNYDMHWVRQITGKGLEWVSAIGSAGDTYYPDSVKGRFTISRENAKNSLYLQMNSLRVGDTAVYYCTRDIHCSSTRCYGMDVWGQGTTVTVSS VL: not shown | 19.6 nM | 0.000388 s⁻¹ | 19700 M⁻¹ s⁻¹ | 30 min | 
H4xH9035P (antibody, human IgG4, V domains shown, H4xH: modified human IgG4 Fc; also called H4xH9035P2) VH: EVQLVESGGRVVRPGGSLRLSCAASGFTFDDYGMSWVRQLPGKGLEWVAGISWNDGKTVYAESVKGRFIISRDNAKNSLHLEMNSLRAEDTALYYCARDWQYLIDRYFDFWGQGTLVTVSS VL: not shown | 4.62 nM | 0.000475 s⁻¹ | 103000 M⁻¹ s⁻¹ | 24 min | 
H4xH9037P (antibody, human IgG4, V domains shown, H4xH: modified human IgG4 Fc; also called H4xH9037P2) VH: EVQLVESGGGLVQPGGSLRLSCAASGFTFDDYAMHWVRQAPGKGLEWVSGIGWSSGSIGYADSVKGRFTISRDNAKNSLYLQMDSLRPEDSALYYCAKAYTFMITLYFDYWGQGTLVTVSS VL: not shown | 10.9 nM | 0.000795 s⁻¹ | 73200 M⁻¹ s⁻¹ | 15 min | 
H4xH9120P2 (antibody, human IgG4, V domains shown, H4xH: modified human IgG4 Fc) VH: QVQLVQSGAEVKRPGASVKVSCKASGYTFTSFYMYWVRQAPGQGLEWMGIINPSDGSTSNAQKFQGRVTMTRDTSTSTVYMELSSLRSEDTAVYYCARRVAGDIFDIWGQGTMVTVSS VL: not shown | 30.1 nM | 0.000998 s⁻¹ | 33200 M⁻¹ s⁻¹ | 12 min | 
H4xH9128P2 (antibody, human IgG4, V domains shown, H4xH: modified human IgG4 Fc) VH: QVQLQESGPGLVKPSETLSLTCTVSGGSISSYHWNWIRQSPGKGLEWIGYIYYIGSTDYNPSLESRVTISVDTSKNQFSLKLSSVTAADTAVYYCARVPVGATGASDVWGQGTMVTVSS VL: not shown | 14.5 nM | 0.000719 s⁻¹ | 49500 M⁻¹ s⁻¹ | 16 min | 
H4xH9135P2 (antibody, human IgG4, V domains shown, H4xH: modified human IgG4 Fc) VH: EVQLVESGGSVVRPGGSLRLSCVVSGFTFEDYGLSWVRQIPGKGLEWVSGISWTGGNTGYADSVKGRFTISRDNAKNSLYLQMNSLRAEDTALYHCTRDRQWLMQWYFDYWGQGTLVTVSS VL: not shown | 10.2 nM | 0.0012 s⁻¹ | 117000 M⁻¹ s⁻¹ | 10 min | 
H4xH9145P2 (antibody, human IgG4, V domains shown, H4xH: modified human IgG4 Fc) VH: QVQLVESGGGVVQPGRSLRLSCSASGFTFSAYAMHWVRQAPGKGLEWVAAISYGGSDKYYADSVKGRFTISRDNSKNTLYLQMNSLRTDDTAVYYCAKSAHWNFFFDYWGQGTLVTVSS VL: not shown | 38.5 nM | 0.00134 s⁻¹ | 34700 M⁻¹ s⁻¹ | 8.6 min | 
H4xH8992P (antibody, human IgG4, V domains shown, H4xH: modified human IgG4 Fc) VH: EVQLVESGGGLVQPGRSLRLSCVASGFALHDYAMHWVRQVPGKGLEWVSSISWNSGVIGYADSLKGRFTISRDNAKNSLYLQMNSLRAEDTALYYCAKGSGSYYVSWFDPWGQGTLVTVSS VL: not shown | 141 nM |  |  | 0.5 min | 
